Measured values reported in PMC3592470 (Nucleic Acids Research, 2012).
Numbering of substitutions follows the chain as printed. Numbers in names are those of the source. Blank lines part the entries; values can stand above or below the binder they belong to.

Columns and labels:
BcgI B subunit [1] = molecular target: T1, BcgI B subunit (UniProt Q07606 1-341); assay: AUC
T1 sequence (looked up): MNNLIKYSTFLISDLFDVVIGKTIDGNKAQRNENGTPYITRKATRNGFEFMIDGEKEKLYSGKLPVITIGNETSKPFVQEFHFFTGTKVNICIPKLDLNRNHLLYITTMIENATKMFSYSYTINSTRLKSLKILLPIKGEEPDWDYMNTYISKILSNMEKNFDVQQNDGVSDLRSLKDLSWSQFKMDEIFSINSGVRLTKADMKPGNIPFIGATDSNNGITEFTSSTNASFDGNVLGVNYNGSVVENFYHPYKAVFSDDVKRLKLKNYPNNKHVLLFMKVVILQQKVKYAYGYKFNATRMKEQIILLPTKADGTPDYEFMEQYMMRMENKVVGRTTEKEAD

BcgI B subunit [2] = molecular target: T1, BcgI B subunit; assay: native MS

stoichiometry N (BcgI B subunit [1]): 2 A per B
B1: BcgI A subunit, wild type (as a subunit of WT BcgI) (enzyme, UniProt Q07605 1-637, looked up)
chain: MVNEKTSTDQLVRRFIEDLGVTYEEQGSSNIQIKQALRSASKSKSQSGVGKPEFIFFSGNHLIIVEDKLAIDKLEYKNNDGIIDTEFPFRRDYAVNGAVHYARHIIEKTNSYKEVIAIGIAGDGLHYQIHPYFVSETELKKLPEMKSLEDISPENIEEFYKVAVLGELPKEERELREVNKIAADMHEDLRNYGQLEGEKKATVVSAILLALEEPTFSLNQLIGSDRVGGTDGEIIFNAVRVYLENAGIVPYAKVGEMLDQFIFIQRDVTLNTVNSNLEMTPLKYFATTLEAEIMDKIKSNTDFDILGNFYGEFVKYGGNDGNPLGIVLTPRHITSLMAELIGINKSDFVLDPACGTGAFLISAMNRMLGQAENDDERRDIKQNRLYGIEIQQKLFTIATTNMILRGDGKSNLIRDNCLTFDNTIMNGYGINKILMNPPYSQAKNDQTQHLSELSFIQQALEMLVVGGKLCAIVPQSTMVGKNRHDKARKKQILKQHTLETVITLNKDTFHGVGVNPCIVIFKAGIKHPENKRVSFVNFEDDGHVVRKHVGLVGDGTEKGKREHLLAVLAGDEDDGTDLIVKTAIKDTDEWLHSFYYFNDGIPSEDDFYKTVANYLTFQFDMTANGKGYLFEGVEENE

stoichiometry N (BcgI B subunit [2]): 2 A per B
B2: BcgI A subunit, E53A mutant (as a subunit of the BcgI E53A protein) (enzyme, UniProt Q07605 1-637, looked up)
chain: B1 chain with E53A
